Data set [1] addresses UctC (Acetobacter aceti strain 1023) (UniProt A9X6P9). As to the kind of experiment: SEC; analytical gel filtration, Superdex 200 Hi-load 16/60, 50 mM Tris-HCl pH 8.0, 100 mM KCl; apparent solution molecular weights from retention times. (In general: SEC sorts molecules by how far they enter the pores of the column.)
Substrate in data set [2]: CC(=O)SCCNC(=O)CCNC(=O)[C@H](O)C(C)(C)COP(=O)(O)OP(=O)(O)OC[C@H]1O[C@@H](n2cnc3c(N)ncnc32)[C@H](O)[C@@H]1OP(=O)(O)O
Briefly: HPLC of oxalyl-CoA formation, Michaelis-Menten fit. In kind it is biochemical, Escherichia coli. To be noted: 50 mM oxalate (subsaturating, value likely lower than true), 50 mM potassium phosphate, pH 6.7, parameter symbol, unit prefix and kcat unit not given, inferred.

Data set [3] concerns the molecule itself. As to the kind of experiment: SEC; analytical gel filtration, Superdex 200 Hi-load 16/60, 50 mM Tris-HCl pH 8.0, 100 mM KCl; apparent solution molecular weights from retention times.
Substrate in data set [4]: CC(=O)SCCNC(=O)CCNC(=O)[C@H](O)C(C)(C)COP(=O)(O)OP(=O)(O)OC[C@H]1O[C@@H](n2cnc3c(N)ncnc32)[C@H](O)[C@@H]1OP(=O)(O)O
Briefly: HPLC of oxalyl-CoA formation, Michaelis-Menten fit. Type of data set: biochemical, Escherichia coli. The following applies: 50 mM oxalate (subsaturating, value likely lower than true), 50 mM potassium phosphate, pH 6.7, parameter symbol, unit prefix and kcat unit not given, inferred. From the text: HPLC of oxalyl-CoA formation, Michaelis-Menten fit on H6YfdE
The source holds these as a separate data set.

Usually stoichiometry N stands for a count of units in the complex or per binding partner. Broadly, the Km is the substrate concentration at which the rate is half of its maximum. Broadly, the kcat is the number of substrate molecules converted per active site and unit of time at saturation.

For the molecule “UctC (from UniProt A9X6P9 1-389) (enzyme)”, the stoichiometry N in data set [1] was 2.

B1: YfdE (Escherichia coli K-12) (protein)
chain: MTNNESKGPFEGLLVIDMTHVLNGPFGTQLLCNMGARVIKVEPPGHGDDTRTFGPYVDGQSLYYSFINHGKESVVLDLKNDHDKSIFINMLKQADVLAENFRPGTMEKLGFSWETLQEINPRLIYASSSGFGHTGPLKDAPAYDTIIQAMSGIMMETGYPDAPPVRVGTSLADLCGGVYLFSGIVSALYGREKSQRGAHVDIAMFDATLSFLEHGLMAYIATGKSPQRLGNRHPYMAPFDVFNTQDKPITICCGNDKLFSALCQALELTELVNDPRFSSNILRVQNQAILKQYIERTLKTQAAEVWLARIHEVGVPVAPLLSVAEAIKLPQTQARNMLIEAGGIMMPGNPIKISGCADPHVMPGAATLDQHGEQIRQEFSS
notes: untagged full-length, recombinant in E. coli BL21(DE3), plasmid pJK566 (Arg232 repaired), only partially purified; dimer
For the molecule B1, in data set [2] (partially pure enzyme), the Km is recorded as 17 µM and the kcat worked out at 11 s⁻¹.

B2: YfdE fused to an N-terminal hexahistidine tag (H6YfdE) (enzyme, Escherichia coli, UniProt P76518 1-381, looked up)
chain: B1 chain
notes: YfdE, Escherichia coli; yfdE gene amplified from genomic DNA of a strain BW25113 derivative; last residue Ser381; Expressed from pET28a (NdeI/XhoI); The appendage and the first five to six residues are disordered in the crystal; also called acetyl-CoA:oxalate CoA-transferase; ACOCT; source: E. coli C41(DE3), purified (ammonium sulfate, metal-charged nitrilotriacetic acid column); not shown: His6, …
As for B2, in data set [3], the “stoichiometry N” value is 2.

B3: H6YfdE (Escherichia coli K-12) (protein)
chain: B1 chain
notes: full-length with N-terminal hexahistidine tag kept, pET28a (pJK593), E. coli C41(DE3); last residue Ser381; dimer
Regarding B3, in data set [4], the Km came out at 18 µM and the kcat was determined as 12 s⁻¹.

B4: YfdEH6 (Escherichia coli K-12) (protein)
chain: B1 chain
notes: full-length with C-terminal hexahistidine tag kept (stop codon converted to Ser), pJK594, E. coli C41(DE3)
With B4, in data set [2], the Km was determined as 13 µM and the kcat came out at 6.9 s⁻¹.

The values above are taken from paper PMC3720670, “Function and X-Ray crystal structure of Escherichia coli YfdE” (PLoS ONE, 2013).
